The target of assay [1] is T1, recombinant Factor VIII (CSL627, rVIII-SingleChain) (Homo sapiens (Human), UniProt P00451 20-2351).
T1 construct: also called FVIII
T1 sequence: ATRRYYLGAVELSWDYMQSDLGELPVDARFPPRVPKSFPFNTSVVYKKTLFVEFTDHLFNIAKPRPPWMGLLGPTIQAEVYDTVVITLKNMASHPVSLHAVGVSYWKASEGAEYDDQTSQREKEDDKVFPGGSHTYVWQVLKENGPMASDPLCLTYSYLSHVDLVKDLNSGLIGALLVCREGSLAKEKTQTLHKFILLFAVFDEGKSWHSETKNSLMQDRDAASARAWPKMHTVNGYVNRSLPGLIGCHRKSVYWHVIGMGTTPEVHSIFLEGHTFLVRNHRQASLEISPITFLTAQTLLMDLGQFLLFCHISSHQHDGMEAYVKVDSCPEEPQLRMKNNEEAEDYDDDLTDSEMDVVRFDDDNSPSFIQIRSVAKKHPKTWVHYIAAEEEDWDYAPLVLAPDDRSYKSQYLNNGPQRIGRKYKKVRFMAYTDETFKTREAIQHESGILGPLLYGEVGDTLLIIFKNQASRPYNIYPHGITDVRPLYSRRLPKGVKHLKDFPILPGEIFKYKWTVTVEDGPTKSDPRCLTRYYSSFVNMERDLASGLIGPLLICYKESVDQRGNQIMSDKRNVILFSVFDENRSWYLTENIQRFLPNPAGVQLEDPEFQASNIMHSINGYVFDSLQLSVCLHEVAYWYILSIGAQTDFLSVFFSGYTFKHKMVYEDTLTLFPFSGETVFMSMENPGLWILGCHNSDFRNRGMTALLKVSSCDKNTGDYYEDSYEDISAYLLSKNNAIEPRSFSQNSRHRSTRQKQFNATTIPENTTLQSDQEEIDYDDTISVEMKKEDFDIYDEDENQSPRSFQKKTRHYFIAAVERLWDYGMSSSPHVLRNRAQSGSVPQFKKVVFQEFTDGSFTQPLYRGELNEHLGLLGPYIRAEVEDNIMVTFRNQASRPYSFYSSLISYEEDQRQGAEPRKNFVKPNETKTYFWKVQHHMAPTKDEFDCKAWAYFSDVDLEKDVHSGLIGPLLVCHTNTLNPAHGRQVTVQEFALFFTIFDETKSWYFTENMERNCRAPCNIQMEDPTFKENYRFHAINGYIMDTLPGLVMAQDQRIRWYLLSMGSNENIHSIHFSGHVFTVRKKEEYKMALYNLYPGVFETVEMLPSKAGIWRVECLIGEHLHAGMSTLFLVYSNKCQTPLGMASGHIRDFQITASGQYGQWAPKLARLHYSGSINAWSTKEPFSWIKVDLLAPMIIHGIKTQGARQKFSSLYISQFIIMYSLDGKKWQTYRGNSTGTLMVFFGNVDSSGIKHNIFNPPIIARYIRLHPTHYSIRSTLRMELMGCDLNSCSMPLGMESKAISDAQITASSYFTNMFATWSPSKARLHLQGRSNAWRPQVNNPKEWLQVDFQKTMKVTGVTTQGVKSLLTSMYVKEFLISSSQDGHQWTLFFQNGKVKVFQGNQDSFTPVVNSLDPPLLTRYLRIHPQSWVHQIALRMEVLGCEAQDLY
Kind of assay: SPR, anti-His capture. On the procedure:
Binding kinetics were investigated by surface plasmon resonance using a Biacore 4000 biosensor at 37° C. Each mutant was captured from cell culture medium to a density of 40-150 RU on a CM-5 sensor chip pre-immobilised with anti-His antibody (14,000 RU). In an initial screening study, FVIII was injected over the captured mutants for 5 minutes at 1 nM and dissociation monitored for 5 minutes.
All sensorgrams were double referenced by subtraction of signals from a reference spot (containing only immobilised anti His antibody) and from a blank injection. Binding kinetics were determined by fitting the double referenced sensorgrams to a 1:1 kinetic model.
Background: Surface plasmon resonance follows binding to a sensor surface in real time, without labels.

Assay [2] concerns the target T1, recombinant Factor VIII (CSL627, …). Kind of assay: SPR, anti-His capture. The method, boiled down: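 His-tagged mutants were captured directly from culture medium onto an anti-His surface (14,000 RU) at 40-150 RU. FVIII at 1 nM was injected for 5 min, followed by 5 min dissociation. Double-referenced sensorgrams were fitted to a 1:1 kinetic model.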
This is another data set of the same source.

By Kd is commonly meant a measure of binding affinity in units of concentration. A word on the koff: it is the first-order rate constant of dissociation. One may read the kon as the second-order rate constant of association.

Positions count from the first letter of the chain named. Numbers in names are those of the source. Like-named read-outs stand apart in the source and are kept apart here.

B1: Hu-vWF[764-1270]-8His S764A/S766Y (other)
chain: ALYCRPPMVKLVCPADNLRAEGLECTKTCQNYDLECMSMGCVSGCLCPPGMVRHENRCVALERCPCFHQGKEYAPGETVKIGCNTCVCRDRKWNCTDHVCDATCSTIGMAHYLTFDGLKYLFPGECQYVLVQDYCGSNPGTFRILVGNKGCSHPSVKCKKRVTILVEGGEIELFDGEVNVKRPMKDETHFEVVESGRYIILLLGKALSVVWDRHLSISVVLKQTYQEKVCGLCGNFDGIQNNDLTSSNLQVEEDPVDFGNSWKVSSQCADTRKVPLDSSPATCHNNIMKQTMVDSSCRILTSDVFQDCNKLVDPEPYLDVCIYDTCSCESIGDCACFCDTIAAYAHVCAQHGKVVTWRTATLCPQSCEERNLRENGYECEWRYNSCAPACQVTCQHPEPLACPVQCVEGCHAHCPPGKILDELLQTCVDPEDCPVCEVAGRRFASGKKVTLNPSDPEHCQICHCDVVNLTCEACQEPGGLVVPPTDAPVSPTTLYVEDISEPPLHDFHHHHHHHH
As to B1, in assay [1], the Kd turned out to be 0.00242 nM, the koff was 7.21e-05 s⁻¹ and the kon was 2.98e+07 M⁻¹ s⁻¹.

B2: Hu-vWF[764-1270]-8His S764P-S766W (other)
chain: B1 chain with A1P, Y3W
As for B2, in assay [2], the Kd was determined as 0.00727 nM, the koff amounted to 8e-05 s⁻¹ and the on-rate (kon) was 1.1e+07 M⁻¹ s⁻¹.

B3: Hu-vWF[764-1270]-8His S766Y-K773S (other)
chain: B1 chain with A1S, K10S
Regarding B3, in assay [2], the dissociation constant Kd stood at 0.0785 nM, the koff is 0.00138 s⁻¹ and the kon came to 1.75e+07 M⁻¹ s⁻¹.

B4: Hu-vWF[764-1270]-8His S766Y-K773F (other)
chain: B1 chain with A1S, K10F
As to B4, in assay [2], the Kd stood at 0.158 nM, the koff amounted to 0.00324 s⁻¹ and the kon was found to be 2.05e+07 M⁻¹ s⁻¹.

B5: Hu-vWF[764-1270]-8His S764D/S766Y (other)
chain: B1 chain with A1D
With B5, in assay [1], the Kd came out at 0.00312 nM, the off-rate constant (koff) was 0.000118 s⁻¹ and the kon stood at 3.78e+07 M⁻¹ s⁻¹.

B6: Hu-vWF[764-1270]-8His S766Y-K773W (other)
chain: B1 chain with A1S, K10W
For the molecule B6, in assay [2], the dissociation constant (Kd) is 0.134 nM, the off-rate (koff) was 0.00393 s⁻¹ and the kon came to 2.93e+07 M⁻¹ s⁻¹.

B7: Hu-vWF[764-1270]-8His S766Y-K773I (other)
chain: B1 chain with A1S, K10I
Take B7: in assay [2], the Kd came to 0.071 nM, the koff came to 0.000569 s⁻¹ and the kon came to 8.02e+06 M⁻¹ s⁻¹.

B8: Hu-vWF[764-1270]-8His S764P-S766Q (other)
chain: B1 chain with A1P, Y3Q
Turning to B8, in assay [2], the dissociation constant (Kd) was 0.0102 nM, the koff was found to be 0.000123 s⁻¹ and the kon worked out at 1.2e+07 M⁻¹ s⁻¹.

B9: Hu-vWF[764-1270]-8His S764P-S766R (other)
chain: B1 chain with A1P, Y3R
As for B9, in assay [2], the Kd turned out to be 0.00921 nM, the dissociation rate constant (koff) was 0.000119 s⁻¹ and the kon stood at 1.29e+07 M⁻¹ s⁻¹.

B10: Hu-vWF[764-1270]-8His S766Y-K773E (other)
chain: B1 chain with A1S, K10E
With B10, in assay [2], the Kd is 0.261 nM, the koff stood at 0.00481 s⁻¹ and the kon was found to be 1.84e+07 M⁻¹ s⁻¹.

B11: Hu-vWF[764-1270]-8His S764P-S766T (other)
chain: B1 chain with A1P, Y3T
In the case of B11, in assay [2], the Kd is 0.0116 nM, the koff was found to be 0.000105 s⁻¹ and the kon worked out at 9.01e+06 M⁻¹ s⁻¹.

B12: Hu-vWF[764-1270]-8His S766Y-K773Q (other)
chain: B1 chain with A1S, K10Q
For the molecule B12, in assay [2], the Kd came out at 0.0393 nM, the koff came to 0.000939 s⁻¹ and the kon came to 2.39e+07 M⁻¹ s⁻¹.

B13: Hu-vWF[764-1270]-8His S766Y-K773Y (other)
chain: B1 chain with A1S, K10Y
Take B13: in assay [2], the Kd amounted to 0.18 nM, the koff was found to be 0.00404 s⁻¹ and the on-rate constant (kon) amounted to 2.24e+07 M⁻¹ s⁻¹.

B14: Hu-vWF[764-1270]-8His S766Y-K773L (other)
chain: B1 chain with A1S, K10L
Consider B14, for which, in assay [2], the Kd was 0.0192 nM, the koff amounted to 0.000345 s⁻¹ and the kon was 1.79e+07 M⁻¹ s⁻¹.

B15: Hu-vWF[764-1270]-8His S766Y-K773A (other)
chain: B1 chain with A1S, K10A
With B15, in assay [2], the equilibrium dissociation constant (Kd) was determined as 0.0651 nM, the koff stood at 0.00122 s⁻¹ and the kon stood at 1.88e+07 M⁻¹ s⁻¹.

B16: Hu-vWF[764-1270]-8His S766Y-K773N (other)
chain: B1 chain with A1S, K10N
Turning to B16, in assay [2], the Kd was found to be 0.0984 nM, the koff is 0.00507 s⁻¹ and the kon is 5.15e+07 M⁻¹ s⁻¹.

B17: Hu-vWF[764-1270]-8His S764P-S766V (other)
chain: B1 chain with A1P, Y3V
Regarding B17, in assay [2], the Kd stood at 0.0956 nM, the koff came to 7.82e-05 s⁻¹ and the kon was 819000 M⁻¹ s⁻¹.

B18: Hu-vWF[764-1270]-8His S764P-S766P (other)
chain: B1 chain with A1P, Y3P
Turning to B18, in assay [2], the Kd amounted to 0.0848 nM, the dissociation rate constant (koff) is 0.00217 s⁻¹ and the kon worked out at 2.56e+07 M⁻¹ s⁻¹.

B19: Hu-vWF[764-1270]-8His S766Y-K773D (other)
chain: B1 chain with A1S, K10D
B19: in assay [2], the Kd was found to be 0.343 nM, the koff is 0.0427 s⁻¹ and the kon amounted to 1.25e+08 M⁻¹ s⁻¹.

B20: Hu-vWF[764-1270]-8His S766Y-K773T (other)
chain: B1 chain with A1S, K10T
B20: in assay [2], the Kd came to 0.0224 nM, the koff is 0.000269 s⁻¹ and the kon stood at 1.2e+07 M⁻¹ s⁻¹.

B21: Hu-vWF[764-1270]-8His S766Y-K773R (other)
chain: B1 chain with A1S, K10R
As to B21, in assay [2], the Kd amounted to 0.0335 nM, the koff was 0.000469 s⁻¹ and the kon worked out at 1.4e+07 M⁻¹ s⁻¹.

B22: Hu-vWF[764-1270]-8His S766Y-K773M (other)
chain: B1 chain with A1S, K10M
With B22, in assay [2], the dissociation constant Kd amounted to 0.0335 nM, the off-rate (koff) was found to be 0.000659 s⁻¹ and the kon stood at 1.97e+07 M⁻¹ s⁻¹.

B23: Hu-vWF[764-1270]-8His S766Y-K773G (other)
chain: B1 chain with A1S, K10G
In the case of B23, in assay [2], the dissociation constant (Kd) is 0.0327 nM, the koff came to 0.00197 s⁻¹ and the on-rate constant (kon) was 6.02e+07 M⁻¹ s⁻¹.

B24: Hu-vWF[764-1270]-8His S766Y-K773V (other)
chain: B1 chain with A1S, K10V
For B24, in assay [2], the Kd came out at 0.0494 nM, the koff is 0.000861 s⁻¹ and the kon is 1.74e+07 M⁻¹ s⁻¹.

B25: Hu-vWF[764-1270]-8His S766Y-K773H (other)
chain: B1 chain with A1S, K10H
In the case of B25, in assay [2], the Kd came out at 0.114 nM, the koff came out at 0.0062 s⁻¹ and the on-rate constant (kon) was 5.47e+07 M⁻¹ s⁻¹.

B26: Hu-vWF[764-1270]-8His S766Y-K773P (other)
chain: B1 chain with A1S, K10P
For the molecule B26, in assay [2], the Kd was 0.112 nM, the koff is 0.00243 s⁻¹ and the kon is 2.16e+07 M⁻¹ s⁻¹.

The record behind these values is patent US20190015483A1 (CSL BEHRING RECOMBINANT FACILITY, published 2019).
